Experimental data published in patent US20120052007A1, “PERIPHERAL BLOOD SPARC BINDING ANTIBODIES AND USES THEREOF” (ABRAXIS BIOSCIENCE, LLC, priority 2010, published 2012).
Entries after “also recorded” stand apart in the source; their conditions may differ.

Tests used:
[1] = test system: HT29 (colon); conditions: for Tumor growth inhibition (TGI): HT29 xenograft, versus control group at euthanasia of control animals
Source text: Female and male athymic NCr-nu mice between 5 and 6 weeks of age weighing approximately 20 g were purchased from Harlan, Inc. (Madison, Wis., USA). Human cancer cells HT29 (colon), PC3 (prostate), and MDA-MB-231 (breast) were propagated in cell culture and implanted subcutaneously at one million cells per flank of female (for MDA-MB-231 and HT29) or male (for PC3 prostate tumor) nude mice and allowed to grow to approximately 60-100 mm^3 before treatment was initiated. Treatments included 5-fluorouracil (5FU), docetaxel (Taxotere®), albumin-bound paclitaxel (nab-paclitaxel), nab-paclitaxel plus suntinib malate (Sutent®), or nab-paclitaxel plus bevacizumab (Avastin®) with or without exogenously administered SPARC). Control animals for each xenograft were administered PBS. The longest (length) and shortest (width) tumor diameters (millimeter) and tumor depth were measured twice weekly. The tumor volume was calculated with the formula: tumor volume (mm3)=width×length×depth. Tumor growth inhibition (TGI) was defined as the percentage of tumor volume reduction compared with the control group at the time of euthanasia for the control animals. Tumor doubling time was defined as the time required for the tumor volume to double […]. Animal weights were measured twice weekly. Statistical analysis was performed using the Prism program (GraphPad, San Diego, Calif., USA). Analysis of variance (ANOVA) statistic was used to compare tumor growth curves.

[2] = biological target: T1, recombinant human SPARC (Bio1-SPARC) (Homo sapiens, UniProt P09486); experiment: ELISA binding to recombinant human SPARC (Bio1-SPARC); conditions: for binding to Bio1-SPARC compared with HTI-SPARC (ELISA): Bio1-SPARC versus human platelet SPARC (FIG. 9)
T1 sequence (P09486 18-303): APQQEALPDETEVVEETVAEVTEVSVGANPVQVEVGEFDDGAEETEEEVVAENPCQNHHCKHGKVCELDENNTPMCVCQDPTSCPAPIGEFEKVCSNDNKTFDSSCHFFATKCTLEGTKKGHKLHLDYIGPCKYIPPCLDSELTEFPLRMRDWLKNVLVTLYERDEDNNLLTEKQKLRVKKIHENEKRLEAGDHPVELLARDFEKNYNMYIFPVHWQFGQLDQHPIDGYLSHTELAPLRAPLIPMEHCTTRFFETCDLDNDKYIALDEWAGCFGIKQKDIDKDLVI
Experimental: The ability of Imm1 through Imm12 (the mouse-derived anti-human SPARC antibodies) to bind recombinant human SPARC (Bio 1-SPARC) was characterized by multiple ELISA assays performed at various stages of purification. FIG. 7 presents the results of an ELISA assay performed on a serial dilution (1:1, 1:10, and 1:100) of antibody supernatants prior to purification. […] Another ELISA assay was performed with the purified antibodies (FIG. 8) at concentrations of 0.04 μg/mL, 0.2 μg/mL, 1 μg/mL, and 5 μg/mL. […] An additional ELISA was performed to compare the binding of the mouse derived Immseries antibodies to two different varieties of SPARC: Bio1-SPARC, and human platelet SPARC (HTI-SPARC) (FIG. 9).
ELISA assays were also used to characterize the SPARC binding of the fully human SPARC binding antibodies, Imm13 and Imm14. […] Surface plasmon resonance binding assays, performed on the Biacore 3000® (GE/Biacore International AB, Uppsala, Sweden), tested the binding of Fab 16 to both varieties of SPARC immobilized on a sensorchip (FIGS. 11 and 12).

[3] = test system: LL/2 (Lewis Lung Carcinoma); experiment: LL/2 Lewis Lung Carcinoma survival / lung metastasis model; assay type: in vivo, mice; conditions: 200 μg/mouse i.p. twice weekly for 4 weeks, versus mouse control IgG
Experimental: C57BL male mice (approx. 6 weeks old) were weighed, and then injected intravenously with approximately 1×10^6 cells (approximately 0.1 mL) of LL/2 (Lewis Lung Carcinoma) with 25-gauge needle. A minimum of 10 animals was used per group. Twice weekly for 4 weeks, each animal in all groups received 200 μg/mouse of a test antibody or mouse IgG. These test articles/antibodies were dosed via intra-abdominal injection into the peritoneal cavity with a 25-27 gauge needle. The first dose was administered within 30 minutes of tumor cell injection.
Animals were weighed prior to tumor cell injection, and twice weekly prior to dosing. All animals were examined twice daily for mortality/morbidity. At the end of the experiment, the mice were killed, and primary tumors and lungs were removed, fixed, and embedded. Euthanized animals and any animals found dead prior to rigor mortis were necropsied. Plasma and lungs from all animals were collected and weighed at termination. Lungs were infused with and then immersed in 10% Neutral buffered formalin. Tissues were stored for additional gross and histopathologic analysis.
Animals were administered either mHTI, Imm12, or Imm14. A negative control group was administered mIgG. The antibodies were formulated in PBS and were administered in at dose of 200 μg/mouse, twice weekly, for four weeks. The survival of the animals was then recorded over […].

[4] = test system: HT29 colon xenografts; experiment: Tumor localization of Alexa 680 labeled antibodies in HT29 xenografts; assay type: in vivo, mice; conditions: 200 ug/mouse i.v. day 1, Alexa 680 label, followed 36 days
Experimental: Nude mice implanted with subcutaneous HT29 colon xenografts were treated with Imm series antibodies labeled with labeled with Alexa 680 fluorescent dye at dose of 200 ug/mouse. The labeled Imm antibodies were formulated in saline and administered intravenously on day 1. The fluorescent signal was followed in these mice over the course of 36 days.

[5] = test system: recombinant human SPARC protein; experiment: Tube Formation Assay (AngioKit) with SPARC and SPARC binding antibodies; assay type: cell-based; conditions: 300 μg/mL antibody with 10 μg/mL recombinant human SPARC
Experimental: This assay was performed using the TCS Cellworks human AngioKit model kit (TCS-ZHA-1000, TCS Cell Works, Buckingham, UK) as described in Example 10 above. The media contained 10 μg/mL recombinant human SPARC protein. The media also contained 300 μg/mL of one of the above prepared mouse SPARC binding monoclonal antibodies (Imm12, Imm14, mHTI), or a control (mouse IgG).
To examine the effect of SPARC on tubule formation, and interference with that function by SPARC binding monoclonal antibodies, the number of tubules formed and their length was evaluated by light microscopy.

[6] = biological target: T2, denatured human SPARC (Homo sapiens, UniProt P09486); experiment: Western blot against denatured SPARC; assay type: binding; conditions: SDS polyacrylamide gel
T2 sequence (P09486 18-303): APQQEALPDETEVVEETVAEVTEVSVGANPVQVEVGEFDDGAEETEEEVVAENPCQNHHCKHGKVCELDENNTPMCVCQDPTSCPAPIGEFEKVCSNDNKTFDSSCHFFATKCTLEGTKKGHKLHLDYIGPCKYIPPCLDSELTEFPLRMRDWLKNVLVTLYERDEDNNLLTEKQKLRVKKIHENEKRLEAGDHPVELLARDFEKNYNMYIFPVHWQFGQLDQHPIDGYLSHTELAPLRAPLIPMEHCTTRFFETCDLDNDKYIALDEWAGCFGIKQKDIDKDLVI
Source text: Western blotting was used to determine whether the Imm series antibodies bind to linear or conformational epitopes. In this analysis, SPARC protein was run on a polyacrylamide gel in the presence of SDS. Accordingly, the SPARC protein on the gel was in its denatured form. The Imm series antibodies were used as primary antibodies and were then probed with goat anti-mouse IgG. BSA was used as a negative control.

[7] = biological target: T3, mouse SPARC (Mus musculus, UniProt P07214); experiment: ELISA binding to murine SPARC (FIG. 16); conditions: ELISA (FIG. 16)
T3 sequence (P07214 18-302): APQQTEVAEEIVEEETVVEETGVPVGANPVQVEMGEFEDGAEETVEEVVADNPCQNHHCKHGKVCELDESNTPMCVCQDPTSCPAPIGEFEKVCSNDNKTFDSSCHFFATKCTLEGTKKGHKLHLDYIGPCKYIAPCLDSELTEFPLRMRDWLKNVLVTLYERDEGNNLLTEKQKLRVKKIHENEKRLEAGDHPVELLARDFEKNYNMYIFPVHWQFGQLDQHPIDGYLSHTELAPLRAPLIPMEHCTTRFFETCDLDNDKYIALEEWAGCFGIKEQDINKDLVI

[8] = biological target: T4, SPARC (Homo sapiens, UniProt P09486); experiment: ELISA binding to human SPARC (FIG. 16); conditions: ELISA (FIG. 16)
T4 sequence (P09486 18-303): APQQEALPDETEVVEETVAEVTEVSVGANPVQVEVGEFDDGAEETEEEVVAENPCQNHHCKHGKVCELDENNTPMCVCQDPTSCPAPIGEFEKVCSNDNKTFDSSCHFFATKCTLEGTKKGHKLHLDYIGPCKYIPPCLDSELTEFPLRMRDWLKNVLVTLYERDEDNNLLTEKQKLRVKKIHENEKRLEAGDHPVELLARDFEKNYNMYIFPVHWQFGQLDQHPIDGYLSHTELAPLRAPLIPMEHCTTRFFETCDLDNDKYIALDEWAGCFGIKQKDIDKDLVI

[9] = biological target: T4, SPARC; experiment: ELISA comparing Imm11, Imm12, Imm13, Imm14 binding to human SPARC; conditions: ELISA (FIG. 13)
Experimental: An ELISA assay was also performed to directly compare the SPARC binding capabilities of selected mouse-derived anti human SPARC antibodies, Imm11 and Imm12, to the fully human Imm13 and Imm14, the results of which are presented in FIG. 13.

[10] = antibody supernatants prior to purification, dilutions 1:1, 1:10, 1:100 (FIG. 7)
[11] = purified antibodies at 0.04, 0.2, 1 and 5 μg/mL (FIG. 8)

Q: How did the “Tumor growth inhibition (TGI)” value [1] turn out when O=c1[nH]cc(F)c(=O)[nH]1 [Imm 5-FU, 5-fluorouracil] was run?
A: 89.8%

Q: What about the “body weight / tolerability” value ([1]; mouse, in vivo) of the same molecule?
A: without decrease in body weight

Q: How did the “Tumor growth inhibition (TGI)” value [1] turn out when “bevacizumab: anti-VEGF antibody, Avastin” was run?
A: 75%

B1: Imm12: mouse-derived anti-human SPARC antibody from hybridoma, IgG1 (κ), SEQ ID NOs 7 and 14 (antibody, V domains shown)
VH: KASGYTFTKYGMNWVKQAPGKGLQWMGWINTNTGEPTYAEEFKGRFAFSLETSASTAYLQINNLENADSATYFCTRGSSYFDYWGQGTTVTV
VL: GQRATISYRASKSVSTSGYSYMHWNQQKPGQPPRLLIYLVSNLESGVPARFSGSGSGTDFTLNIHPVEEEDAATYYCQHIRELTRSVEAPSS
Q: How did the “binding to Bio1-SPARC compared with HTI-SPARC (ELISA)” value [2] turn out when B1 was run?
A: bind both varieties of human SPARC equally well

Q: What about the “Bio1-SPARC binding (ELISA)” value [2, 10] of the same molecule?
A: highest Bio1-SPARC binding; also recorded: highest binding overall

Q: And the “Bio1-SPARC binding (ELISA)” value [2, 11]?
A: highest Bio1-SPARC binding

Q: And the “inhibition of lung LL/2 metastasis” value [3]?
A: did not inhibit lung LL/2 metastasis

Q: And the “localization at the tumor site” value [4]?
A: do not localize at the tumor site

Q: And the “effect on SPARC-induced tubule formation” value [5]?
A: only very slight formation of very short tubules

Q: And the “binding to denatured SPARC” value [6]?
A: binding

Q: And the “binding to mouse SPARC” value [7]?
A: not mouse SPARC

Q: What about the “binding to human SPARC” value [8] of the same molecule?
A: specifically bind to human SPARC

B2: Imm10: mouse-derived anti-human SPARC antibody from hybridoma, IgG1 (κ) (antibody, V domains shown)
VH: AASGFTFSYYGMSWVRQTPDKRLEWVATISSGGSYTYYPDSVKGRFTISRDNSENTLYLQMNSLKSEDTAMYFCARRGSSGDYYGMDYWGQG
VL: GEKVTMSCKSSQSLLYSNSQKNYLAWYQQKPGQSPKLLIYWASTRESGVPPRFTGSGSGTDFSLTISSVKAEDLAVYYCQQYYSFPRTFGGG
Q: B2 was tested. Which “Bio1-SPARC binding (ELISA)” value [2, 10] did it give?
A: highest Bio1-SPARC binding

B3: Imm4: mouse-derived anti-human SPARC antibody from hybridoma, IgG1 (κ) (antibody, V domains shown)
VH: AASGFAFSSYDMSWVRQTPEKRLEWVAYITSGGGSTYYPDTVKGRFTISRDNAKNTLYLQMSSLKSEDTAMYYCAGSRSWFAYWGQGTTVTV
VL: GEGVSFSCRASQSIGTGIHWYQRRTNGSPRLLIKYASESISGIPSRFSGSGSGTDFTLTINSVESEDIADYYCQQSYSWPLTFGAGTKLELK
Q: How did the “binding to Bio1-SPARC compared with HTI-SPARC (ELISA)” value [2] turn out when B3 was run?
A: bind Bio1-SPARC significantly better than HTI-SPARC

Q: What about the “Bio1-SPARC binding (ELISA)” value [2, 10] of the same molecule?
A: highest Bio1-SPARC binding

Q: What about the “Bio1-SPARC binding (ELISA)” value [2, 11] of the same molecule?
A: highest Bio1-SPARC binding

B4: Imm2: mouse-derived anti-human SPARC antibody from hybridoma, IgG1, 2b (κ) (antibody, V domains shown)
VH: TVTGYSITSDHAWSWIRQFPGNKLEWMGYISYSGSTSYNPSLKSRVSVTRDTSKNHFFLQLNSVTTEDTATYYCARAAFIGGWFAYWGQGTT
VL: GEKVTITCSASSSVSYMHWFQQKPGTSPKLWIYSTPNLASGVPARFSGSGSGTSYSLTISRMEAEDAATYYCQQRSSYPLTFGGGTKLELKQ
Q: B4 was tested. Which “localization at the tumor site” value [4] did it give?
A: localizes well

B5: Imm6: mouse-derived anti-human SPARC antibody from hybridoma, IgG1 (κ) (antibody, V domains shown)
VH: TVTGYSITSDSAWNWIRQFPGNKLEWMGHISYSGSTSYNPSLKSRISITRDTSKDQFFLQLNSVTTEDTATYYCARGSYYGNFGFTYWGQGT
VL: GETVTITCQASENIASDLAWYQKEGRSPQLLVYEARNLADGVPSRFSGSGSDTLYSLNIHSLQSEDVARYYCQHYYGTPWTFGGGTKPRAN
Q: Which “Bio1-SPARC binding (ELISA)” value [2, 10] does the source give for B5 here?
A: highest Bio1-SPARC binding

B6: Imm13: fully human anti-human SPARC antibody created from Fab6, IgG1 (κ) (antibody, V domains shown)
VH: QVQLVQSGGGLVQPGGSLRLSCAASGFTVSSNYMSWVRQAPGKGLEWVSVIYSGGSTYYADSVKGRFTISRDNSKNTLYLQMNSLRAEDTAVYYCARGIAAAGLDYWGQGTLVTVSP
VL: ELVLTQPPSVSAAPGQKVTISCSGSSSNIGNNYVYWYQQLPGTAPKLLIYRNNQRPSGVPDRFSGSKSGTSASLAISGLRSEDEADYYCAAWDDSLSGWVFGGGTKLTVL
Q: Which “affinity for SPARC relative to mouse derived Imm11 and Imm12” value [9] does the source give for B6 here?
A: higher affinity
